Legend:
SEC = target: the molecule itself; assay: SEC
[1] = target: T1, Spirochaeta thermophila YeeE (Spirochaeta thermophila, UniProt G0GAP6 1-328); assay: BLI
T1 sequence (looked up): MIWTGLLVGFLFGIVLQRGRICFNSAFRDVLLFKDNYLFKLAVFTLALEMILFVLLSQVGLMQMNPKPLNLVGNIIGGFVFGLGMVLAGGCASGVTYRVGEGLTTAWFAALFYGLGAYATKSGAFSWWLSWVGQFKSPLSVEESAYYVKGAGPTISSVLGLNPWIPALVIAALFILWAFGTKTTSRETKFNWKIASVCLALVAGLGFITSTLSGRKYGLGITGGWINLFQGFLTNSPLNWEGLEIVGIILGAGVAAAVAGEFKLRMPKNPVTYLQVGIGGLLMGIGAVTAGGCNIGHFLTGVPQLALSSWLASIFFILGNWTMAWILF

Kd [1]: 1.6 ± 0.2 µM
B1: Spirochaeta thermophila YeeD, His-tagged, wild type (natural protein, UniProt G0GAP7 1-80, looked up)
chain: MANYQVSKEIDVRGEVCPIPDVEAKRAVQSANDGEIILVRIDYPLSKERIPETVKKLGSEVLEIEEAAPGEWNIYIKVKK
stoichiometry N (SEC): 2
